Experimental data published in publication PMC8934652.

Legend:
CELF1 RRM1/2 [1] = biological target: T1, CELF1 RRM1/2 (UniProt Q92879 1-187); test: FP
CELF1 RRM1/2 S147A = CELF1 RRM1/2 S147A (UniProt Q92879 1-187, S147A); test: FP
CELF1 RRM1/2 [2] = biological target: T1, CELF1 RRM1/2; test: FP competition

T1 sequence (Q92879 1-187): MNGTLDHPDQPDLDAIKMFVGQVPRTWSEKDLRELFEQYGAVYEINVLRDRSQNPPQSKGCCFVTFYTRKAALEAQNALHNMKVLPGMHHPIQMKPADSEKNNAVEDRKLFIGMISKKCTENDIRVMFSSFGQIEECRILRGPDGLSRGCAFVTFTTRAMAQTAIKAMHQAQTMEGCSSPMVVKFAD
CELF1 RRM1/2 S147A, sequence (Q92879 1-187 S147A): as the sequence (Q92879 1-187) above, with S147A counted along it

| Binder | binding result (CELF1 RRM1/2 [1]) | binding result (CELF1 RRM1/2 S147A) | binding result (CELF1 RRM1/2 [2]) |
| --- | --- | --- | --- |
| UUGUUGUU (ssRNA) [GU probe] | binds | binds |  |
| UUGUUGUU (ssRNA) [GU cold probe] |  |  | binds |
